The target in data set [1] is yfp-tagged αENaC stably expressed on JME nasal epithelial cells. Briefly: fluorescence binding isotherm on polarized JME cells expressing yfp-αENaC, empty-vector cells as non-specific control, Hill fit.
Data set [2] addresses αβγENaC expressed in Xenopus laevis oocytes (rat) (UniProt P37089). Briefly: cell-based or functional assay.
Data set [3] has as its target ENaC endogenous to primary human bronchial epithelial cultures (human) (UniProt P37088). Description: cell-based or functional assay.
For data set [4], the target named is T1, ENaC containing the βS518C mutant (Rattus norvegicus, UniProt P37089+P37090+P37091, S518C).
T1 construct: expressed in transfected cells; host or cells: Xenopus oocytes
T1 sequence (P37089 1-698): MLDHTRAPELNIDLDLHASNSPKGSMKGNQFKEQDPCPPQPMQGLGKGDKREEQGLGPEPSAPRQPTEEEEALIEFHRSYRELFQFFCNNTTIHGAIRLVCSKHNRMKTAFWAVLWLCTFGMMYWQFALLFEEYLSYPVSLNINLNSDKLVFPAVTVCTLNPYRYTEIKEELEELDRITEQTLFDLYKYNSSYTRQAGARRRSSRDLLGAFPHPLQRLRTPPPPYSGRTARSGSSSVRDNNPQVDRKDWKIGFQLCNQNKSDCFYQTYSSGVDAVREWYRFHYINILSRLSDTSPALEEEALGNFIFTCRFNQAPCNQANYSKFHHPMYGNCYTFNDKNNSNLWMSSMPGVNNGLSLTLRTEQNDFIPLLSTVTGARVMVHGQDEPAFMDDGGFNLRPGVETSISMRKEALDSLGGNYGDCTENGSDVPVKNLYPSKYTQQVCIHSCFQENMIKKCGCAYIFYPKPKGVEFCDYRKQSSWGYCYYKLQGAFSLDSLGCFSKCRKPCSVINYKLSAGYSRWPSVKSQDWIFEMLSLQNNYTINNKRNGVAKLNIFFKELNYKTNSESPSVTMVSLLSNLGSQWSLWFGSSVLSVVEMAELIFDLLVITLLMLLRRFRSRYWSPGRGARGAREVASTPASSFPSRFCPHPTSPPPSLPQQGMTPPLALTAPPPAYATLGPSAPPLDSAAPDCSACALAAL
T1 sequence (P37090 1-638 S518C): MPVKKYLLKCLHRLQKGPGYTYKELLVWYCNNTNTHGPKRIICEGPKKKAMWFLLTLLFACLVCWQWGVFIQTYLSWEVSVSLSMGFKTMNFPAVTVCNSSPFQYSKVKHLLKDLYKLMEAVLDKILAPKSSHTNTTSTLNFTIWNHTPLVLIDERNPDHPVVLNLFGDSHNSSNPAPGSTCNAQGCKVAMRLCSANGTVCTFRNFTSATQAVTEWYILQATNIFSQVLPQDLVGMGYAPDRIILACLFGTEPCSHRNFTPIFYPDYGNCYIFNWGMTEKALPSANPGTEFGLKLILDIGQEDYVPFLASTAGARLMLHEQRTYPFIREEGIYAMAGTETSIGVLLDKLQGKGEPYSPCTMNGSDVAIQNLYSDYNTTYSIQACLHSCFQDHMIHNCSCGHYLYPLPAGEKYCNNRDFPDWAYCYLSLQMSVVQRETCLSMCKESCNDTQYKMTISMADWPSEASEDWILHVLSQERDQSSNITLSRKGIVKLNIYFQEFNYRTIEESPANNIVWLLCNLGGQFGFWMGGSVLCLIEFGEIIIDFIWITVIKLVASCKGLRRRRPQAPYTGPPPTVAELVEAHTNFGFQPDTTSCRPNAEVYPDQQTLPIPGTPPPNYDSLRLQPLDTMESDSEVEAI
T1 sequence (P37091 1-650): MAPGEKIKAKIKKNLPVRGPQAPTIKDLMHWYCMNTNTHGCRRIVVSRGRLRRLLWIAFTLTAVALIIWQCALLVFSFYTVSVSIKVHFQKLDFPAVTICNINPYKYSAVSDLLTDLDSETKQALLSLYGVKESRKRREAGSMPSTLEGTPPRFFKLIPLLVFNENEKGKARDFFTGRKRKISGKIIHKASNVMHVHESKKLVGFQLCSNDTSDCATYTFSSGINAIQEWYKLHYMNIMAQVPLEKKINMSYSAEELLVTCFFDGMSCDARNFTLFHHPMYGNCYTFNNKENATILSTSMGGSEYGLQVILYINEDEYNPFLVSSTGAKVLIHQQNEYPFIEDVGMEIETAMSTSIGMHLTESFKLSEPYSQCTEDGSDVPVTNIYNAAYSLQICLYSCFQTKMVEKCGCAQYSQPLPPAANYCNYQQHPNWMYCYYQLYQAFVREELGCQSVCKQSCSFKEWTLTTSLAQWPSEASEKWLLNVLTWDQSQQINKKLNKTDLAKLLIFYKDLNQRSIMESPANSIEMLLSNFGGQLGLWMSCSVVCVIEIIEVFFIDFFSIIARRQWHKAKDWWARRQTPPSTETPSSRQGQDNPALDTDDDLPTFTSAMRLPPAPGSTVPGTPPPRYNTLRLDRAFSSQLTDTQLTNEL
Description: Oocyte current of ENaC containing the βS518C mutant with MTSET. To be noted: addition of MTSET. Format: cell-based. The procedure:
Oocyte studies. Xenopus laevis oocytes were harvested and injected as described (Donaldson, et al., J. Biol. Chem. 277:8338 (2002)). Defolliculated healthy stage V-VI oocytes were injected with 0.3 ng of cRNA of each ENaC subunit. Injected oocytes were kept in modified Barth's saline (in mM: 88 NaCl, 1 KCl, 2.4 NaHCO3, 0.3 Ca(NO3)2, 0.41 CaCl2, 0.82 MgSO4, and 15 HEPES, adjusted to pH 7.35 with Tris). Oocytes were studied 24 hr after injection using the two electrode voltage clamp technique as previously described (Donaldson, et al., J. Biol. Chem. 277:8338 (2002)). Oocytes were clamped at a holding potential of […]. The change in amiloride-sensitive whole cell current as an indicator of ENaC activity was determined by subtracting the corresponding current value measured in the presence of 10 μM amiloride from that measured before the application of amiloride.
The effect of SPLUNC1 on the number of ENaC channels in the plasma membrane was tested by expressing SPLUNC1 and αENaC in Xenopus oocytes. After surface biotinylation of αENaC, total lysate was prepared and lysate from 3-4 eggs was separated on a 10% gel.

The test system of data set [5] is T2, Recombinant SPLUNC1 (V5/6His-tagged, purified from HEK293 media).
T2 sequence: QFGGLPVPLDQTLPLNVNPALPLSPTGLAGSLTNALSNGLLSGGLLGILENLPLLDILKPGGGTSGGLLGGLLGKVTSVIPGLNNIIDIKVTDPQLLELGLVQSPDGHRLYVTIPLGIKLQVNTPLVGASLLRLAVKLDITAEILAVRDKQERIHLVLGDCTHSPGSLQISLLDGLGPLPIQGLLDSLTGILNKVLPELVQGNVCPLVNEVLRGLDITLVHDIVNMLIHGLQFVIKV

Data set [6] has as its target αβγENaC expressed in Xenopus laevis oocytes (rat, UniProt P37089 1-698; P37090 1-638; P37091 1-650). Description: cell-based or functional assay.

We go through five molecules from patent US9549967B2, “Regulation of sodium channels by PLUNC proteins” (The University of North Carolina at Chapel Hill, priority 2009, dated 2017).

Chain of ENaC endogenous to primary human bronchial epithelial cultures (human) (P37088 whole entry, chain 1 of 3): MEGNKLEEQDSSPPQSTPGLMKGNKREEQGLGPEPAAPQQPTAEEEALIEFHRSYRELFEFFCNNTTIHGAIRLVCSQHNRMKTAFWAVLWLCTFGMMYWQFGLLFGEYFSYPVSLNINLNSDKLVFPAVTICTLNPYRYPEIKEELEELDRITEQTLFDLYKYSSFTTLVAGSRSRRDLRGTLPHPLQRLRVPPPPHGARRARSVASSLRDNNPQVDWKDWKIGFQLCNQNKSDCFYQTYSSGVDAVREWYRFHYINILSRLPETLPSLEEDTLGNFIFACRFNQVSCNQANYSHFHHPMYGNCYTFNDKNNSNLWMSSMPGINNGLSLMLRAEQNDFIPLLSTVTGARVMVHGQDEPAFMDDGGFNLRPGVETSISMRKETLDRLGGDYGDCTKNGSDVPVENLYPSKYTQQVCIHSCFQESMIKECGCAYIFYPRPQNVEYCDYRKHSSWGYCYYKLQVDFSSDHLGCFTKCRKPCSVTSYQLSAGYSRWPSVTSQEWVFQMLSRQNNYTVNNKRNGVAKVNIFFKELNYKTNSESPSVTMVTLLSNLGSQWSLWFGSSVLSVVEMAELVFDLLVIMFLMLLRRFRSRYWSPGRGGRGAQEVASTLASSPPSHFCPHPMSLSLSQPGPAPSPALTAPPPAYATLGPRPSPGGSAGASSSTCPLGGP
Chain of ENaC endogenous to primary human bronchial epithelial cultures (human) (P51168 whole entry, chain 2 of 3, further chain): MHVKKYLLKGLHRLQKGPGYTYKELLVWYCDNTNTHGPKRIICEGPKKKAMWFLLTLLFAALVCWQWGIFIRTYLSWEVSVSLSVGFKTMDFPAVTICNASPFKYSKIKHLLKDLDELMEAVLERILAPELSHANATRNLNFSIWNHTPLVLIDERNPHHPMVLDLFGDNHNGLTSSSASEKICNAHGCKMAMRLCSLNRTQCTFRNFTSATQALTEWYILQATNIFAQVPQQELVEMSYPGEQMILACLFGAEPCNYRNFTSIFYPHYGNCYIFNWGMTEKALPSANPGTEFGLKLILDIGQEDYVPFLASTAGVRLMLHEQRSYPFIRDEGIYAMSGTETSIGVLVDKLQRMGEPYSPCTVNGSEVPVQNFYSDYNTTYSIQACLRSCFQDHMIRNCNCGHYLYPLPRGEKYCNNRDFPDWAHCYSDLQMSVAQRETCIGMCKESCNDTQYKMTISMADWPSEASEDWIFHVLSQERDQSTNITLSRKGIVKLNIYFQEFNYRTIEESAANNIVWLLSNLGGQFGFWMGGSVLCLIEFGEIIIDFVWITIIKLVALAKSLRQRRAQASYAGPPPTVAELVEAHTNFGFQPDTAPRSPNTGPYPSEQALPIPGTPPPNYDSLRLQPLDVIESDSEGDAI
Chain of ENaC endogenous to primary human bronchial epithelial cultures (human) (P51170 whole entry, chain 3 of 3, further chain): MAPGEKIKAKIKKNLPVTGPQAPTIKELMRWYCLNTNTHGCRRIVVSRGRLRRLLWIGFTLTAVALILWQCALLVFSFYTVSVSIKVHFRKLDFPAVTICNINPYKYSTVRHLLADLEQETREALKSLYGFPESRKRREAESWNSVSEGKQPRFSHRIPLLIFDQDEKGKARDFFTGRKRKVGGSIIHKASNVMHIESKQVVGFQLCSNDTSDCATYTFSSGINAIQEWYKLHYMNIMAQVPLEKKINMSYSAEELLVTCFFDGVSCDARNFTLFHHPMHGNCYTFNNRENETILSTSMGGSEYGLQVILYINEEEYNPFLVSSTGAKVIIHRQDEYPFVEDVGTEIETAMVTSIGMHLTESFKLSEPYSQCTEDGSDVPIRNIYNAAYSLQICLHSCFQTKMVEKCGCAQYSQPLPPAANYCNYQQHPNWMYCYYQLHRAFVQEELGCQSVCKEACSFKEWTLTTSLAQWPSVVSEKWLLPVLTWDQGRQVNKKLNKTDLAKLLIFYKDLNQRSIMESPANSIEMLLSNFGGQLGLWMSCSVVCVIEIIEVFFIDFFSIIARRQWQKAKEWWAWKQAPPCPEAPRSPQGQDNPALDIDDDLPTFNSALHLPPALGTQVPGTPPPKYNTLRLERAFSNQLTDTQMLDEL
Chain of yfp-tagged αENaC stably expressed on JME nasal epithelial cells (P37088 whole entry): as the sequence (P37088 whole entry, chain 1 of 3) above

As usually defined, the Kd is a measure of binding affinity in units of concentration. A high value points to a looser complex. Molecule “Texas red-labeled recombinant SPLUNC1 (from UniProt Q9NP55 20-256)” gave a Kd in data set [1] of 0.055 µg/mL.
The molecule “Recombinant SPLUNC1 (V5/6His-tagged, purified from HEK293 media) (from UniProt Q9NP55 20-256)” returned a decrease in ENaC currents (amiloride-sensitive whole cell current, oocytes) in data set [2] of 70%. In data set [3], this molecule returned an ENaC inhibition of 70% and a transepithelial electrical resistance of 33%.
In the case of `C[N+](C)(C)CCSS(C)(=O)=O.[Br-]` [MTSET, reference compound], the “ENaC Po” value in data set [4] is 1.0.
For trypsin, the “cleavage of fluorogenic substrate BGAR-MCA by 1.0 or 0.3 U/ml trypsin” value in data set [5] is listed as 50 ng/ml rSPLUNC1 had only a modest affect (˜10%) on the ability of either 1.0 or 0.3 U/ml trypsin to cleave a fluorogenic substrate.

B1: V5-tagged SPLUNC1 expressed in Xenopus oocytes (other, not shown: small tags and cut ends)
chain: T2 sequence
Regarding B1, the “decrease in amiloride-sensitive ENaC current relative to control oocytes” value in data set [6] was approximately 70%.
